Reference: US20210123927A1

Target: galactose-deficient IgA1 (Gd-IgA1), enzymatically generated (UniProt P01876)
Test: dot blot, anti-His detection

Sequence of UniProt P01876 (P01876 other isoform, or with tags, fused parts or gaps): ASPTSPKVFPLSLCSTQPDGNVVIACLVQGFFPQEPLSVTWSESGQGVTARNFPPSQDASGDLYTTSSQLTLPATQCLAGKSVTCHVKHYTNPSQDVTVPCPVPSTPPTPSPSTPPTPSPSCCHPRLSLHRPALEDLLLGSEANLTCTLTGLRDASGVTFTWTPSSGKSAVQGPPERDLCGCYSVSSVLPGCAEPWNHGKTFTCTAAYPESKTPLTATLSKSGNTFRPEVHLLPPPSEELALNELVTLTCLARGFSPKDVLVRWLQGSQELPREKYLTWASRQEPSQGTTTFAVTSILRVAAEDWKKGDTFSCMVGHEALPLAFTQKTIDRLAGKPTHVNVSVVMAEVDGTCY

- amount of Gd-IgA1 detected in dot blot: > 1 µg
Substance: RussiaSea-001 (Crenomytilus grayanus lectin/CGL), His-tagged (artificial RussiaSea-001) (from UniProt H2FH31 1-150)
